In publication PMC7752801:

Molecular target: streptolysin O (SLO) isolated from group A Streptococcus (Streptococcus pyogenes (group A Streptococcus)) (UniProt P0C0I3)
Assay: other fluorescence titration; SLO at 2.0×10^−8 M mixed with HSA from 0 M to 4.0×10^−8 M; fluorescence between 300 nm and 400 nm, excitation 280; apparent Kd from Eq. 1

Chain of UniProt P0C0I3 (P0C0I3 34-571): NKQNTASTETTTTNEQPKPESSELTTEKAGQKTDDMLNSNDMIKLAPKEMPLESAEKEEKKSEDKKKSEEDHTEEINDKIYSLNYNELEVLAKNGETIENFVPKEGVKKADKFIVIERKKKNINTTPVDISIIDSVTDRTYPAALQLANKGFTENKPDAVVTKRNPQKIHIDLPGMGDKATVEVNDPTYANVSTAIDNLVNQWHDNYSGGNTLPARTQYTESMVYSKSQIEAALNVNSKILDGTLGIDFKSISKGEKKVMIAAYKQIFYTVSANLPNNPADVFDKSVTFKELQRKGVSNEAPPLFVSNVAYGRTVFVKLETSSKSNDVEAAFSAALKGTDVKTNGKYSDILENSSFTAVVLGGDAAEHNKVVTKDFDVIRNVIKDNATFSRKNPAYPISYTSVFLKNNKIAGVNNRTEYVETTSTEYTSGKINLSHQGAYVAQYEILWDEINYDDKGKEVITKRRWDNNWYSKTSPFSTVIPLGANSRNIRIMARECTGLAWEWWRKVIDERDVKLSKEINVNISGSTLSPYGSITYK

“L305A/F374A 6×His-tag-HSA (double mutant Leu305Ala/Phe374Ala) (natural protein)” showed a Kd of 7.3 nM.
